# Laboratory results: patent US20250026846A1 (JCR PHARMACEUTICALS, published 2025)
# T1: recombinant monkey TfR (r monkey TfR: Sino Biological Inc.), crab-eating monkey TfR extracellular region with … (crab-eating monkey (Macaca fascicularis))
# T1 construct: Bought from Sino Biological; also called r monkey TfR-ECD (Histag); not shown: histidine tag at the N-terminus
# T1 chain: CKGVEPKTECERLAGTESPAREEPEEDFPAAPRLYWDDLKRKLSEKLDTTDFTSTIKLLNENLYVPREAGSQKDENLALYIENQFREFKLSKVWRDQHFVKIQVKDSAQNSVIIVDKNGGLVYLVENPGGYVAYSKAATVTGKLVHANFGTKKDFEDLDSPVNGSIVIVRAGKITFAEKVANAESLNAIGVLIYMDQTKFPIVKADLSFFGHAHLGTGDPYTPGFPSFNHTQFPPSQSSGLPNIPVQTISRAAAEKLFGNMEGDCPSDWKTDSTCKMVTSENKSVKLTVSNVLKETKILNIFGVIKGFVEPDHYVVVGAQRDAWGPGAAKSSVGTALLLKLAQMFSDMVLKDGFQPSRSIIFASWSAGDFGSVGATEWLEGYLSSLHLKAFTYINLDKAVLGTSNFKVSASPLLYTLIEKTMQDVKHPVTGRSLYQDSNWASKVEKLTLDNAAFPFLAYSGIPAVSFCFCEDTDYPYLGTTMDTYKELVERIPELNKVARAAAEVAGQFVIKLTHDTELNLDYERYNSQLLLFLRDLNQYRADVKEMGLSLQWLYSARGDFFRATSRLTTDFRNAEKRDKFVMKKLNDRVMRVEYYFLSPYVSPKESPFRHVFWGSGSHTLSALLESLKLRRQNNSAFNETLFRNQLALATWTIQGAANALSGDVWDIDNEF
# How the values were obtained:
# [1] = target: T2, recombinant human TfR (r human TfR: Sino Biological Inc.), hTfR extracellular region with a histidine tag at … (human, UniProt P02786 89-760); experiment: BLI (Octet RED96), His-tagged TfR ECD on Ni-NTA sensor
# T2 construct: Bought from Sino Biological; also called r human TfR-ECD (Histag); recombinant hTfR; not shown: histidine tag at the N-terminus
# [2] = target: T1, recombinant monkey TfR (r monkey TfR: …); experiment: as above
Binder,Kd [1] [nM],koff [1] [s⁻¹],kon [1] [M⁻¹ s⁻¹],Kd [2] [nM],koff [2] [s⁻¹],kon [2] [M⁻¹ s⁻¹]
"Fab GS3-NAGLU (other, also called Fab HC-GS3-NAGLU) light: DIVMTQTPLSLSVTPGQPASISCRSSQSLVHSNGNTYLHWYLQKPGQSPQLLIYKVSNRFSGVPDRFSGSGSGTDFTLKISRVEAEDVGVYYCSQSTHVPWTFGQGTKVEIKRTVAAPSVFIFPPSDEQLKSGTASVVCLLNNFYPREAKVQWKVDNALQSGNSQESVTEQDSKDSTYSLSSTLTLSKADYEKHKVYACEVTHQGLSSPVTKSFNRGEC heavy: EVQLVQSGAEVKKPGESLKISCKGSGYSFMNYWLGWVRQMPGKGLEWMGDIYPGGDYPTYSEKFKVQVTISADKSISTAYLQLSSLKASDTAMYYCARSGNYDEVAYWGQGTLVTVSSASTKGPSVFPLAPSSKSTSGGTAALGCLVKDYFPEPVTVSWNSGALTSGVHTFPAVLQSSGLYSLSSVVTVPSSSLGTQTYICNVNHKPSNTKVDKKVEPKSCDKTHTGGGGSGGGGSGGGGSDEAREAAAVRALVARLLGPGPAADFSVSVERALAAKPGLDTYSLGGGGAARVRVRGSTGVAAAAGLHRYLRDFCGCHVAWSGSQLRLPRPLPAVPGELTEATPNRYRYYQNVCTQSYSFVWWDWARWEREIDWMALNGINLALAWSGQEAIWQRVYLALGLTQAEINEFFTGPAFLAWGRMGNLHTWDGPLPPSWHIKQLYLQHRVLDQMRSFGMTPVLPAFAGHVPEAVTRVFPQVNVTKMGSWGHFNCSYSCSFLLAPEDPIFPIIGSLFLRELIKEFGTDHIYGADTFNEMQPPSSEPSYLAAATTAVYEAMTAVDTEAVWLLQGWLFQHQPQFWGPAQIRAVLGAVPRGRLLVLDLFAESQPVYTRTASFQGQPFIWCMLHNFGGNHGLFGALEAVNGGPEAARLFPNSTMVGTGMAPEGISQNEVVYSLMAELGWRKDPVPDLAAWVTSFAARRYGVSHPDAGAAWRLLLRSVYNCSGEACRGHNRSPLVRRPSLQMNTSIWYNRSDVFEAWRLLLTSAPSLATSPAFRYDLLDLTRQAVQELVSLYYEEARSAYLSKELASLLRAGGVLAYELLPALDEVLASDSRFLLGSWLEQARAAAVSEAEADFYEQNSRYQLTLWGPEGNILDYANKQLAGLVANYYTPRWRLFLEALVDSVAQGIPFQQHQFDKNVFQLEQAFVLSKQRYPSQPRGDTVDLAKKIFLKYYPRWVAGSW",< 0.001,< 1e-07,291000,2.62,0.000402,154000
"Fab GS3-AC (other, also called Fab HC-GS3-AC) light: DIVMTQTPLSLSVTPGQPASISCRSSQSLVHSNGNTYLHWYLQKPGQSPQLLIYKVSNRFSGVPDRFSGSGSGTDFTLKISRVEAEDVGVYYCSQSTHVPWTFGQGTKVEIKRTVAAPSVFIFPPSDEQLKSGTASVVCLLNNFYPREAKVQWKVDNALQSGNSQESVTEQDSKDSTYSLSSTLTLSKADYEKHKVYACEVTHQGLSSPVTKSFNRGEC heavy: EVQLVQSGAEVKKPGESLKISCKGSGYSFMNYWLGWVRQMPGKGLEWMGDIYPGGDYPTYSEKFKVQVTISADKSISTAYLQLSSLKASDTAMYYCARSGNYDEVAYWGQGTLVTVSSASTKGPSVFPLAPSSKSTSGGTAALGCLVKDYFPEPVTVSWNSGALTSGVHTFPAVLQSSGLYSLSSVVTVPSSSLGTQTYICNVNHKPSNTKVDKKVEPKSCDKTHTGGGGSGGGGSGGGGSQHAPPWTEDCRKSTYPPSGPTYRGAVPWYTINLDLPPYKRWHELMLDKAPVLKVIVNSLKNMINTFVPSGKIMQVVDEKLPGLLGNFPGPFEEEMKGIAAVTDIPLGEIISFNIFYELFTICTSIVAEDKKGHLIHGRNMDFGVFLGWNINNDTWVITEQLKPLTVNLDFQRNNKTVFKASSFAGYVGMLTGFKPGLFSLTLNERFSINGGYLGILEWILGKKDVMWIGFLTRTVLENSTSYEEAKNLLTKTKILAPAYFILGGNQSGEGCVITRDRKESLDVYELDAKQGRWYVVQTNYDRWKHPFFLDDRRTPAKMCLNRTSQENISFETMYDVLSTKPVLNKLTVYTTLIDVTKGQFETYLRDCPDPCIGW",0.209,0.000105,501000,~11.8,~0.00327,277000
"Fab GS3-FUCA1 (other, also called Fab HC-GS3-FUCA1) light: DIVMTQTPLSLSVTPGQPASISCRSSQSLVHSNGNTYLHWYLQKPGQSPQLLIYKVSNRFSGVPDRFSGSGSGTDFTLKISRVEAEDVGVYYCSQSTHVPWTFGQGTKVEIKRTVAAPSVFIFPPSDEQLKSGTASVVCLLNNFYPREAKVQWKVDNALQSGNSQESVTEQDSKDSTYSLSSTLTLSKADYEKHKVYACEVTHQGLSSPVTKSFNRGEC heavy: EVQLVQSGAEVKKPGESLKISCKGSGYSFMNYWLGWVRQMPGKGLEWMGDIYPGGDYPTYSEKFKVQVTISADKSISTAYLQLSSLKASDTAMYYCARSGNYDEVAYWGQGTLVTVSSASTKGPSVFPLAPSSKSTSGGTAALGCLVKDYFPEPVTVSWNSGALTSGVHTFPAVLQSSGLYSLSSVVTVPSSSLGTQTYICNVNHKPSNTKVDKKVEPKSCDKTHTGGGGSGGGGSGGGGSQPPRRYTPDWPSLDSRPLPAWFDEAKFGVFIHWGVFSVPAWGSEWFWWHWQGEGRPQYQRFMRDNYPPGFSYADFGPQFTARFFHPEEWADLFQAAGAKYVVLTTKHHEGFTNWPSPVSWNWNSKDVGPHRDLVGELGTALRKRNIRYGLYHSLLEWFHPLYLLDKKNGFKTQHFVSAKTMPELYDLVNSYKPDLIWSDGEWECPDTYWNSTNFLSWLYNDSPVKDEVVVNDRWGQNCSCHHGGYYNCEDKFKPQSLPDHKWEMCTSIDKFSWGYRRDMALSDVTEESEIISELVQTVSLGGNYLLNIGPTKDGLIVPIFQERLLAVGKWLSINGEAIYASKPWRVQWEKNTTSVWYTSKGSAVYAIFLHWPENGVLNLESPITTSTTKITMLGIQGDLKWSTDPDKGLFISLPQLPPSAVPAEFAWTIKLTGVK",< 0.001,< 1e-07,282000,0.323,4.88e-05,151000
"Fab GS3-GUSB (other, also called Fab HC-GS3-GUSB) light: DIVMTQTPLSLSVTPGQPASISCRSSQSLVHSNGNTYLHWYLQKPGQSPQLLIYKVSNRFSGVPDRFSGSGSGTDFTLKISRVEAEDVGVYYCSQSTHVPWTFGQGTKVEIKRTVAAPSVFIFPPSDEQLKSGTASVVCLLNNFYPREAKVQWKVDNALQSGNSQESVTEQDSKDSTYSLSSTLTLSKADYEKHKVYACEVTHQGLSSPVTKSFNRGEC heavy: EVQLVQSGAEVKKPGESLKISCKGSGYSFMNYWLGWVRQMPGKGLEWMGDIYPGGDYPTYSEKFKVQVTISADKSISTAYLQLSSLKASDTAMYYCARSGNYDEVAYWGQGTLVTVSSASTKGPSVFPLAPSSKSTSGGTAALGCLVKDYFPEPVTVSWNSGALTSGVHTFPAVLQSSGLYSLSSVVTVPSSSLGTQTYICNVNHKPSNTKVDKKVEPKSCDKTHTGGGGSGGGGSGGGGSLQGGMLYPQESPSRECKELDGLWSFRADFSDNRRRGFEEQWYRRPLWESGPTVDMPVPSSFNDISQDWRLRHFVGWVWYEREVILPERWTQDLRTRVVLRIGSAHSYAIVWVNGVDTLEHEGGYLPFEADISNLVQVGPLPSRLRITIAINNTLTPTTLPPGTIQYLTDTSKYPKGYFVQNTYFDFFNYAGLQRSVLLYTTPTTYIDDITVTTSVEQDSGLVNYQISVKGSNLFKLEVRLLDAENKVVANGTGTQGQLKVPGVSLWWPYLMHERPAYLYSLEVQLTAQTSLGPVSDFYTLPVGIRTVAVTKSQFLINGKPFYFHGVNKHEDADIRGKGFDWPLLVKDFNLLRWLGANAFRTSHYPYAEEVMQMCDRYGIVVIDECPGVGLALPQFFNNVSLHHHMQVMEEVVRRDKNHPAVVMWSVANEPASHLESAGYYLKMVIAHTKSLDPSRPVTFVSNSNYAADKGAPYVDVICLNSYYSWYHDYGHLELIQLQLATQFENWYKKYQKPIIQSEYGAETIAGFHQDPPLMFTEEYQKSLLEQYHLGLDQKRRKYVVGELIWNFADFMTEQSPTRVLGNKKGIFTRQRQPKSAAFLLRERYWKIANETRYPHSVAKSQCLENSLFT",< 0.001,< 1e-07,449000,< 0.001,< 1e-07,250000
"Fab GS3-GALC (other, also called Fab HC-GS3-GALC) light: DIVMTQTPLSLSVTPGQPASISCRSSQSLVHSNGNTYLHWYLQKPGQSPQLLIYKVSNRFSGVPDRFSGSGSGTDFTLKISRVEAEDVGVYYCSQSTHVPWTFGQGTKVEIKRTVAAPSVFIFPPSDEQLKSGTASVVCLLNNFYPREAKVQWKVDNALQSGNSQESVTEQDSKDSTYSLSSTLTLSKADYEKHKVYACEVTHQGLSSPVTKSFNRGEC heavy: EVQLVQSGAEVKKPGESLKISCKGSGYSFMNYWLGWVRQMPGKGLEWMGDIYPGGDYPTYSEKFKVQVTISADKSISTAYLQLSSLKASDTAMYYCARSGNYDEVAYWGQGTLVTVSSASTKGPSVFPLAPSSKSTSGGTAALGCLVKDYFPEPVTVSWNSGALTSGVHTFPAVLQSSGLYSLSSVVTVPSSSLGTQTYICNVNHKPSNTKVDKKVEPKSCDKTHTGGGGSGGGGSGGGGSYVLDDSDGLGREFDGIGAVSGGGATSRLLVNYPEPYRSQILDYLFKPNFGASLHILKVEIGGDGQTTDGTEPSHMHYALDENYFRGYEWWLMKEAKKRNPNITLIGLPWSFPGWLGKGFDWPYVNLQLTAYYVVTWIVGAKRYHDLDIDYIGIWNERSYNANYIKILRKMLNYQGLQRVKIIASDNLWESISASMLLDAELFKVVDVIGAHYPGTHSAKDAKLTGKKLWSSEDFSTLNSDMGAGCWGRILNQNYINGYMTSTIAWNLVASYYEQLPYGRCGLMTAQEPWSGHYVVESPVWVSAHTTQFTQPGWYYLKTVGHLEKGGSYVALTDGLGNLTIIIETMSHKHSKCIRPFLPYFNVSQQFATFVLKGSFSEIPELQVWYTKLGKTSERFLFKQLDSLWLLDSDGSFTLSLHEDELFTLTTLTTGRKGSYPLPPKSQPFPSTYKDDFNVDYPFFSEAPNFADQTGVFEYFTNIEDPGEHHFTLRQVLNQRPITWAADASNTISIIGDYNWTNLTIKCDVYIETPDTGGVFIAGRVNKGGILIRSARGIFFWIFANGSYRVTGDLAGWIIYALGRVEVTAKKWYTLTLTIKGHFTSGMLNDKSLWTDIPVNFPKNGWAAIGTHSFEFAQFDNFLVEATR",< 0.001,< 1e-07,224000,1.4,0.000154,111000
